Results published in patent publication US20250296994A1 (SYSMEX, published 2025).

Biological target: T1, human Crtac1A (human, UniProt Q9NQ79 28-661)
T1 construct: Recombinant protein (IB control sample) or native protein in human CSF and serum; also called rCrtac1A
T1 sequence: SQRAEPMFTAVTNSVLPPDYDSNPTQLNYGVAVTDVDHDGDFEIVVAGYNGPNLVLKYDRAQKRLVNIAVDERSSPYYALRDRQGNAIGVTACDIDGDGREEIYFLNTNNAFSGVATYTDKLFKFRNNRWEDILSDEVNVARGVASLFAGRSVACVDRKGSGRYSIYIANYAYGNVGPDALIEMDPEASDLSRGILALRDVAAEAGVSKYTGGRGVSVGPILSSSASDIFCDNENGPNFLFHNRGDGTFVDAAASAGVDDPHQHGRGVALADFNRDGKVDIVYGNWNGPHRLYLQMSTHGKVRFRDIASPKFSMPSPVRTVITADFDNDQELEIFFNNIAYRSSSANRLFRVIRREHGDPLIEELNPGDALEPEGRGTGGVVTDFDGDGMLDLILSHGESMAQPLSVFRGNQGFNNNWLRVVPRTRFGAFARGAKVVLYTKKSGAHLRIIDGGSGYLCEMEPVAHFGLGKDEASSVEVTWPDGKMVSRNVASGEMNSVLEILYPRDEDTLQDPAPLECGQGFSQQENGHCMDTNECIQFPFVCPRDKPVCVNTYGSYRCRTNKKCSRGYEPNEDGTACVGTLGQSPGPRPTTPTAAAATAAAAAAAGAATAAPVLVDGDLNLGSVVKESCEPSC
Assay: immunoblotting (Wes) of denatured recombinant Crtac1A/1B and human CSF
Procedure: Study of specificity of monoclonal antibody to antigen (1) Immunoblotting (IB) analysis using a monoclonal antibody purified from the culture supernatant of hybridomas of clones 1B4 and 15C2 was performed on human cerebrospinal fluid (2 specimens: referred to as CSF1 and CSF2) by simple Western (registered trademark) system Wes (registered trademark) (Protein Simple Corporation). In the analysis by Wes, capillary electrophoresis and IB of the sample were performed fully automatically by the apparatus. Specific operations such as preparation of an electrophoresis sample, preparation of a diluent of a primary antibody, and analysis by an apparatus were performed according to the protocol attached to Wes. As a control sample, recombinant proteins of Crtac1A and Crtac1B were used. These recombinant proteins were prepared in the same manner as in Example 1. For comparison, analysis using an anti-rat LOTUS antibody (ITM, 45-12C) as a primary antibody was also performed.
In FIG. 5, “conventional antibody” represents the anti-rat LOTUS antibody, and “rCrtac1A/1B” represents recombinant proteins of Crtac1A and Crtac1B. […] However, when monoclonal antibodies derived from clones 1B4 and 15C2 were used, a band was not detected. In the electrophoresis sample, the protein in the sample was denatured by addition of a sample buffer and heating.

binding result: no binding
B1: 15C2 antibody (monoclonal antibody derived from the hybridoma of clone 15C2) (antibody, mouse IgG1, kappa, V domains shown)
VH: EVQLQQFGAELVKPGASVKISCKASGYTFTDYNMDWVKQSHGKSLEWIGDINPNYDSSSYNQKFKGKATLTVDKSSSTAYMELRSLTSEDTAVYYCTRSGGTYWGQGTLVTVSA
VL: DIQMNQSPSSLSASLGDTITITCHASQNINVWLSWYQQKPGNIPKLLIYKASNLHTGVPSRFSGSGSGTGFSLTISSLQPEDIATYYCQQAQSYPRTFGGGTKLEIKR
notes: Mouse IgG1; Used as hybridoma culture supernatant (ELISA) or purified from supernatant (IB, IP); also called anti-Crtac1B antibody; antibody of the present embodiment
